Measured values published in publication PMC7716884.

Target: insulin lispro
Test: SEC-MALS

- stoichiometry N: 6
Substance: insulin lispro (ligand)
